Assay results reported in patent publication US20240066131A1 (Protagonist Therapeutics, Inc., priority 2020, published 2024).
Values belong to the binder of their own block, whether it stands above or below them. Starred links: 1 amine or outer side, 2 acyl side, 3 side chain; linkers in the order of their positions; H or OH if unused. Positions of bridges follow the written chain, without caps; N, C: chain ends. Non-standard residues stand in square brackets, D forms with d. Groups on a side chain read outwards from the residue. No end group written: not given here. *: point of attachment. PEG11 = NCCOCCOCCOCCOCCOCCOCCOCCOCCOCCOCCOCCC(=O)O; C18 diacid = O=C(O)CCCCCCCCCCCCCCCCC(=O)*; PeptoidIsovaleric Acid = not defined here; Dip = N[C@H](C(=O)O)C(c1ccccc1)c1ccccc1; γGlu = O=C(O)[C@H](CCC(=O)[*:2])N[*:1]; Palmitoyl = CCCCCCCCCCCCCCCC(=O)*; β3hF = N[C@H](CC(=O)O)Cc1ccccc1; NMeK = CN[C@@H](CCCCN)C(=O)O; Isovaleryl = CC(C)CC(=O)*; AEEA = NCCOCCOCC(=O)O; Ahx = NCCCCCC(=O)O

Tests used:
Test in all cases: cell-based or functional assay
[1] = target: T1, human ferroportin (SLC40A1) fused in frame with GFP, stably expressed in HEK293 cells (human, UniProt Q9NP59 1-571)
T1 sequence (looked up): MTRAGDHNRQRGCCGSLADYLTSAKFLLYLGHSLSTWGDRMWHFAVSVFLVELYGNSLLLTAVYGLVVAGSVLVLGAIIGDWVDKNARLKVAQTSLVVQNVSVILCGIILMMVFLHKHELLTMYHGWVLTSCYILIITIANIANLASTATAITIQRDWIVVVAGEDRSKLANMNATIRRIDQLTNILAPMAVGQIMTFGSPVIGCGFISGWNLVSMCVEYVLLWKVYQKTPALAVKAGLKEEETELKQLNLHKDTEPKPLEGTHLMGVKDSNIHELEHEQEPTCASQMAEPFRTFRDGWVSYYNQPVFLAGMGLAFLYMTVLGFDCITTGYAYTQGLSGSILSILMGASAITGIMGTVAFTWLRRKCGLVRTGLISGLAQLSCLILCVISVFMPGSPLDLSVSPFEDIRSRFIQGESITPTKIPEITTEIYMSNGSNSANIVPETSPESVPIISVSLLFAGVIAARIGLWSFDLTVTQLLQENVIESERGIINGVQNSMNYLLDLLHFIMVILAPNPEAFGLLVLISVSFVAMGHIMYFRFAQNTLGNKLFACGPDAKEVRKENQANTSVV

[2] = target: T1, human ferroportin (SLC40A1) fused in …; remark: listed apart in the source
[3] = target: T2, ferroportin endogenously expressed on T47D cells (HTB 133, ATCC) (human, UniProt Q9NP59 1-571)
T2 sequence (looked up): T1 sequence (looked up)

FPN IC50 [1]: > 3000 nM
B1: Isovaleric Acid-E-T-H-A-P-A-I-[(D)Lys]-[bhPhe]-[Lys(Ahx_Palm)]-[(D)Lys]-A-NH2 (peptide)
peptide: Isovaleryl-ETHAPAI[dK][β3hF]K([Ahx-Palmitoyl])[dK]A-NH2
SMILES: CCCCCCCCCCCCCCCC(=O)NCCCCCC(=O)NCCCC[C@H](NC(=O)C[C@H](Cc1ccccc1)NC(=O)[C@@H](CCCCN)NC(=O)[C@@H](NC(=O)[C@H](C)NC(=O)[C@@H]1CCCN1C(=O)[C@H](C)NC(=O)[C@H](Cc1c[nH]cn1)NC(=O)[C@@H](NC(=O)[C@H](CCC(=O)O)NC(=O)CC(C)C)[C@@H](C)O)[C@@H](C)CC)C(=O)N[C@H](CCCCN)C(=O)N[C@@H](C)C(N)=O

FPN EC50 [2]: 588 nM
T47D MSA IC50 [3]: 261 nM
B6: Isovaleric Acid-E-T-H-F-P-A-I-[Lys(1Peg2_1Peg2_Ahx_C18_Diacid)]-F-E-P-R-S-K-G-A-K-NH2 (peptide)
peptide: Isovaleryl-ETHFPAIK([AEEA-AEEA-Ahx-C18 diacid])FEPRSKGAK-NH2

FPN IC50 [1]: 654 nM
B9: Isovaleric Acid-E-T-H-[Dpa]-d[Lys(Gal)]-A-I-[Lys(Ahx_Palm)]-[bhPhe]-NH2 (peptide)
peptide: Isovaleryl-ETH[Dip][dK](Gal)AIK([Ahx-Palmitoyl])[β3hF]-NH2

FPN EC50 [2]: 314 nM
T47D MSA IC50 [3]: 13.3 nM
B11: Isovaleric Acid-E-T-H-[Dpa]-P-A-I-[Lys(IsoGlu_Palm)]-[bhPhe]-[(D)Lys]-NH2 (peptide)
peptide: Isovaleryl-ETH[Dip]PAIK([γGlu-Palmitoyl])[β3hF][dK]-NH2
SMILES: CCCCCCCCCCCCCCCC(=O)N[C@@H](CCC(=O)NCCCC[C@H](NC(=O)[C@@H](NC(=O)[C@H](C)NC(=O)[C@@H]1CCCN1C(=O)[C@@H](NC(=O)[C@H](Cc1c[nH]cn1)NC(=O)[C@@H](NC(=O)[C@H](CCC(=O)O)NC(=O)CC(C)C)[C@@H](C)O)C(c1ccccc1)c1ccccc1)[C@@H](C)CC)C(=O)N[C@H](CC(=O)N[C@H](CCCCN)C(N)=O)Cc1ccccc1)C(=O)O

Continued, binder first:

B2: Isovaleric Acid-E-T-H-[Dpa]-P-A-I-[Lys(1PEG2_1PEG2_IsoGlu_C18_Diacid)]-[bhPhe]-[(D)Lys]-NH2 (peptide)
peptide: Isovaleryl-ETH[Dip]PAIK([AEEA-AEEA-γGlu-C18 diacid])[β3hF][dK]-NH2
FPN EC50 [2]: 429 nM
T47D MSA IC50 [3]: 65.8 nM

B3: Isovaleric Acid-E-T-H-F-P-A-I-[Lys(1PEG2_1PEG2_IsoGlu_C18_Diacid)]-F-E-P-R-S-K-G-A-K-NH2 (peptide)
peptide: Isovaleryl-ETHFPAIK([AEEA-AEEA-γGlu-C18 diacid])FEPRSKGAK-NH2
FPN EC50 [2]: 2360 nM
T47D MSA IC50 [3]: 3440 nM

B4: Isovaleric Acid-K-T-H-[Dpa]-P-A-I-E-[bhPhe]-NMe[Lys(Ahx_Palm)]-NH2 (peptide)
peptide: Isovaleryl-KTH[Dip]PAIE[β3hF][NMeK]([Ahx-Palmitoyl])-NH2
modifications: lactam 1-8
SMILES: CCCCCCCCCCCCCCCC(=O)NCCCCCC(=O)NCCCC[C@@H](C(N)=O)N(C)C(=O)C[C@H](Cc1ccccc1)NC(=O)[C@@H]1CCC(=O)NCCCC[C@H](NC(=O)CC(C)C)C(=O)N[C@@H]([C@@H](C)O)C(=O)N[C@@H](Cc2c[nH]cn2)C(=O)N[C@@H](C(c2ccccc2)c2ccccc2)C(=O)N2CCC[C@H]2C(=O)N[C@@H](C)C(=O)N[C@@H]([C@@H](C)CC)C(=O)N1
T47D MSA IC50 [3]: 4.07 nM

B5: [Lys(IVA(1:1)-T-H-[Dpa]-P-A-I-[Lys(Ahx_Palm)]-bhF(1:2) (peptide)
peptide: K(Isovaleryl)TH[Dip]PAIK([Ahx-Palmitoyl])[bhF]
modifications: also: marks (1:1) at Lys1 and (1:2) at bhF9 not explained
FPN IC50 [1]: 2150 nM

B7: Isovaleric Acid-E-T-H-F-P-A-I-[Lys(Ahx_Palm)]-F-E-P-R-S-K-G-A-K-NH2 (peptide)
peptide: Isovaleryl-ETHFPAIK([Ahx-Palmitoyl])FEPRSKGAK-NH2
SMILES: CCCCCCCCCCCCCCCC(=O)NCCCCCC(=O)NCCCC[C@H](NC(=O)[C@@H](NC(=O)[C@H](C)NC(=O)[C@@H]1CCCN1C(=O)[C@H](Cc1ccccc1)NC(=O)[C@H](Cc1c[nH]cn1)NC(=O)[C@@H](NC(=O)[C@H](CCC(=O)O)NC(=O)CC(C)C)[C@@H](C)O)[C@@H](C)CC)C(=O)N[C@@H](Cc1ccccc1)C(=O)N[C@@H](CCC(=O)O)C(=O)N1CCC[C@H]1C(=O)N[C@@H](CCCNC(=N)N)C(=O)N[C@@H](CO)C(=O)N[C@@H](CCCCN)C(=O)NCC(=O)N[C@@H](C)C(=O)N[C@@H](CCCCN)C(N)=O
FPN EC50 [2]: 177 nM
T47D MSA IC50 [3]: 11.4 nM

B8: Isovaleric Acid-E-T-H-[Dpa]-P-A-I-[Lys(2PEG11_Palm)]-[bhPhe]-NH2 (peptide)
peptide: Isovaleryl-ETH[Dip]PAIK([PEG11-Palmitoyl])[β3hF]-NH2
FPN EC50 [2]: 44.5 nM
T47D MSA IC50 [3]: 1.88 nM

B10: Isovaleric Acid-E-T-H-[Dpa]-P-A-I-[Lys(Ahx_Palm)]-d[Lys(Gal-NH2 (peptide)
peptide: Isovaleryl-ETH[Dip]PAIK([Ahx-Palmitoyl])[dK](Gal)-NH2
FPN IC50 [1]: 181 nM

B12: PeptoidIsovaleric Acid-E-T-H-[Dpa]-P-A-I-[Lys(Ahx_Palm)]-[bhPhe]-NH2 (peptide)
peptide: {PeptoidIsovaleric Acid}-ETH[Dip]PAIK([Ahx-Palmitoyl])[β3hF]-NH2
modifications: reading uncertain
FPN IC50 [1]: 1120 nM
